Measurements: paper PMC2134296

Molecular target: adenomatous polyposis coli (APC) protein (endogenous, MDCK cells) (dog (endogenous in MDCK))
Assay: co-IP

Fold coimmunoprecipitated with APC protein relative to endogenous β-catenin, 3 fold:
ΔN151 β-catenin (KT3-tagged, NH2-terminal 151 amino acids deleted) (from UniProt Q02248 152-781) (domain or fragment)
ΔN131 β-catenin (KT3-tagged, NH2-terminal 131 amino acids deleted) (from UniProt Q02248 132-781) (domain or fragment)
ΔN90 β-catenin (KT3-tagged, NH2-terminal 90 amino acids deleted) (from UniProt Q02248 91-781) (domain or fragment)
